In article PMC11548252:
Where two headings read alike, the source gives them in different places.

Assays:
[1] = molecular target: SARS-CoV-2 Spike protein (SARS-CoV-2) (UniProt P0DTC2); assay: fluorescence dequenching (Cy5/BHQ2)
[2] = molecular target: SARS-CoV-2 Spike protein (SARS-CoV-2) (UniProt P0DTC2); assay: fluorescence dequenching (Cy5/BHQ2); remark: listed apart in the source
[3] = molecular target: SARS-CoV-2 Spike protein (SARS-CoV-2) (UniProt P0DTC2); assay: ligand-responsive LAMP, colorimetric (indirect); settings: 5'-phosphate

Row | Sequence | binding (% fluorescence increase) [1] | binding (% fluorescence increase) [2] | binding (% increase of Abs430/Abs560) [3]
1 | CAGCACCGACCTTGTGCTTTGGGAGTGCTGGTCCAAGGGCGTTAATGGAC [EY615QF] | 46 | 31 | –
2 | CAGCACCGACCTTGTGCTTTGGGAGTGCTGGTCCAAGGGCGTTAATGGAC [EY615] | – | – | 81
